Data on 94 variants can be found in the supplement of paper PMC10567573.

To fix the notation:
B1: PLD5 (parent)
chain: VTYMNMTAYNKGRLQSSFWIVDKQ
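Note: lentivirally expressed fusions sorted by FACS into six bins by GFP to DsRed ratio, PSI derived from sequencing read proportions per bin multiplied by bin number.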

Variants of B1 are the subject of this data set. The data set can be described thus: protein stability index of a GFP-peptide fusion (GPS, HEK-293T) (PSI 1-6); higher = more stable. Conditions: c terminus: a fixed tail appended.
As for VTYMNMTAYNEGRLQSSFWIVDKQ [K11E], the protein stability index turned out to be 3.5.
For the variant VTYMNMTAYNLGRLQSSFWIVDKQ [K11L], the protein stability index came to 3.44.
With VTYMNMTAYNQGRLQSSFWIVDKQ [K11Q], the protein stability index came to 1.84.
In the case of VTYMNMTAYNAGRLQSSFWIVDKQ [K11A], the protein stability index worked out at 1.36.
With VTYMNMTAYNHGRLQSSFWIVDKQ [K11H], the protein stability index turned out to be 1.95.
For VTYMNMTAYNPGRLQSSFWIVDKQ [K11P], the protein stability index came out at 2.17.
VTYMNMTAYNSGRLQSSFWIVDKQ [K11S]: the protein stability index stood at 2.96.
Consider VTYMNMTAYNGGRLQSSFWIVDKQ [K11G], for which the protein stability index came out at 1.65.
For VTYMNMTAYNTGRLQSSFWIVDKQ [K11T], the protein stability index turned out to be 2.14.
The value for VTYMNMTAYNIGRLQSSFWIVDKQ [K11I] was 3.18; that for VTYMNMTAYNWGRLQSSFWIVDKQ [K11W] was 1.68.
With VTYMNMTAYNNGRLQSSFWIVDKQ [K11N], the protein stability index came to 3.07.
On to VTYMNMTAYNDGRLQSSFWIVDKQ [K11D], for which the protein stability index is 1.96.
The figure for VTYMNMTAYNYGRLQSSFWIVDKQ [K11Y] is 3.58; for VTYMNMTAYNRGRLQSSFWIVDKQ [K11R] it is 1.96.
In the case of VTYMNMTAYPKGRLQSSFWIVDKQ [N10P], the protein stability index stood at 2.
Turning to VTYMNMTAYQKGRLQSSFWIVDKQ [N10Q], the protein stability index was 2.97.
Consider VTYMNMTAYSKGRLQSSFWIVDKQ [N10S], for which the protein stability index is 1.95.
As to VTYMNMTAYMKGRLQSSFWIVDKQ [N10M], the protein stability index was 3.39.
For the variant VTYMNMTAYWKGRLQSSFWIVDKQ [N10W], the protein stability index was determined as 3.08.
Regarding VTYMNMTAYRKGRLQSSFWIVDKQ [N10R], the protein stability index amounted to 2.25.
In the case of VTYMNMTAYTKGRLQSSFWIVDKQ [N10T], the protein stability index came out at 2.49.
For the variant VTYMNMTAYYKGRLQSSFWIVDKQ [N10Y], the protein stability index was determined as 2.25.
The figure for VTYMNMTAYNKGTLQSSFWIVDKQ [R13T] is 1.48; for VTYMNMTAYNKGGLQSSFWIVDKQ [R13G] it is 1.6.
VTYMNMTAYNKGSLQSSFWIVDKQ [R13S]: the protein stability index is 1.59.
With VTYMNMTAYNKGQLQSSFWIVDKQ [R13Q], the protein stability index was determined as 2.13.
As for VTYMNMTAYNKGKLQSSFWIVDKQ [R13K], the protein stability index came to 1.27.
Turning to VTYMNMTAYNKGILQSSFWIVDKQ [R13I], the protein stability index came out at 2.15.
As to VTYMNMTAYNKGWLQSSFWIVDKQ [R13W], the protein stability index was found to be 4.66.
For the variant VTYMNMTAYNKGDLQSSFWIVDKQ [R13D], the protein stability index was 3.06.
On to VTYMNMTAYNKGYLQSSFWIVDKQ [R13Y], for which the protein stability index came to 2.93.
The figure for VTYMNMTAYNKGALQSSFWIVDKQ [R13A] is 3.25.
Turning to VTYMNMTAYNKGMLQSSFWIVDKQ [R13M], the protein stability index was found to be 2.14.
In the case of VTYMNMTAYNKGELQSSFWIVDKQ [R13E], the protein stability index was 1.73.
As to VTYMNMTAYNKGHLQSSFWIVDKQ [R13H], the protein stability index amounted to 3.22.
For VTYMNMTAYNKGLLQSSFWIVDKQ [R13L], the protein stability index was found to be 1.51.
Regarding VTYMNMTAYNKGNLQSSFWIVDKQ [R13N], the protein stability index worked out at 1.52.
Take VTYMNMTAYNKVRLQSSFWIVDKQ [G12V]: the protein stability index was determined as 1.91.
As for VTYMNMTAYNKERLQSSFWIVDKQ [G12E], the protein stability index amounted to 1.8.
Turning to VTYMNMTAYNKQRLQSSFWIVDKQ [G12Q], the protein stability index is 1.37.
For the variant VTYMNMTAYNKMRLQSSFWIVDKQ [G12M], the protein stability index worked out at 2.18.
VTYMNMTAYNKSRLQSSFWIVDKQ [G12S]: the protein stability index was 2.38.
The value for VTYMNMTAYNKDRLQSSFWIVDKQ [G12D] was 3.02; that for VTYMNMTAYNKTRLQSSFWIVDKQ [G12T] was 1.8.
Take VTYMNMTAYNKRRLQSSFWIVDKQ [G12R]: the protein stability index stood at 1.58.
The value for VTYMNMTAYNKYRLQSSFWIVDKQ [G12Y] was 2.49.
The value for VTYMNMTAYNKLRLQSSFWIVDKQ [G12L] was 4.29; that for VTYMNMTAYNKARLQSSFWIVDKQ [G12A] was 1.89.
On to VTYMNMTAYNKKRLQSSFWIVDKQ [G12K], for which the protein stability index is 2.31.
As to VTYMNMTAYNKHRLQSSFWIVDKQ [G12H], the protein stability index worked out at 1.15.
In the case of VTYMNMTAYNKCRLQSSFWIVDKQ [G12C], the protein stability index was 1.53.
On to VTYMNMTAYNKFRLQSSFWIVDKQ [G12F], for which the protein stability index amounted to 3.77.
As to VTYMNMTAYNKGRLESSFWIVDKQ [Q15E], the protein stability index was 1.94.
For the variant VTYMNMTAYNKGRLTSSFWIVDKQ [Q15T], the protein stability index came out at 4.18.
For VTYMNMTAYNKGRLISSFWIVDKQ [Q15I], the protein stability index came to 2.03.
Consider VTYMNMTAYNKGRLKSSFWIVDKQ [Q15K], for which the protein stability index amounted to 1.03.
Take VTYMNMTAYNKGRLWSSFWIVDKQ [Q15W]: the protein stability index worked out at 2.58.
With VTYMNMTAYNKGRLNSSFWIVDKQ [Q15N], the protein stability index was 3.18.
The figure for VTYMNMTAYNKGRLMSSFWIVDKQ [Q15M] is 2.46.
Turning to VTYMNMTAYNKGRLDSSFWIVDKQ [Q15D], the protein stability index worked out at 1.63.
For VTYMNMTAYNKGRLASSFWIVDKQ [Q15A], the protein stability index is 3.27.
In the case of VTYMNMTAYNKGRLPSSFWIVDKQ [Q15P], the protein stability index was 2.48.
With VTYMNMTAYNKGRLLSSFWIVDKQ [Q15L], the protein stability index turned out to be 2.49.
Take VTYMNMTAYNKGRLGSSFWIVDKQ [Q15G]: the protein stability index is 2.44.
As for VTYMNMTAYNKGRLFSSFWIVDKQ [Q15F], the protein stability index came out at 1.61.
As for VTYMNMTAYNKGRLRSSFWIVDKQ [Q15R], the protein stability index was 3.58.
The value for VTYMNMTAYNKGRLVSSFWIVDKQ [Q15V] was 4.47; that for VTYMNMTAYNKGRLHSSFWIVDKQ [Q15H] was 2.42; that for VTYMNMTAYNKGREQSSFWIVDKQ [L14E] was 1.62.
VTYMNMTAYNKGRPQSSFWIVDKQ [L14P]: the protein stability index is 2.86.
The value for VTYMNMTAYNKGRDQSSFWIVDKQ [L14D] was 2.06; that for VTYMNMTAYNKGRTQSSFWIVDKQ [L14T] was 2.14.
Turning to VTYMNMTAYNKGRYQSSFWIVDKQ [L14Y], the protein stability index amounted to 2.04.
For the variant VTYMNMTAYNKGRVQSSFWIVDKQ [L14V], the protein stability index was found to be 1.84.
The value for VTYMNMTAYNKGRQQSSFWIVDKQ [L14Q] was 1.25.
The figure for VTYMNMTAYNKGRNQSSFWIVDKQ [L14N] is 1.29.
The figure for VTYMNMTAYNKGRMQSSFWIVDKQ [L14M] is 2.88; for VTYMNMTAYNKGRAQSSFWIVDKQ [L14A] it is 2.63; for VTYMNMTAYNKGRKQSSFWIVDKQ [L14K] it is 2.29.
In the case of VTYMNMTAYNKGRWQSSFWIVDKQ [L14W], the protein stability index came out at 2.63.
On to VTYMNMTAYNKGRSQSSFWIVDKQ [L14S], for which the protein stability index came to 2.72.
For the variant VTYMNMTAYNKGRRQSSFWIVDKQ [L14R], the protein stability index was determined as 2.06.
As to VTYMNMTAYNKGRFQSSFWIVDKQ [L14F], the protein stability index amounted to 1.93.
Consider VTYMNMTAYNKGRLQQSFWIVDKQ [S16Q], for which the protein stability index turned out to be 2.42.
The figure for VTYMNMTAYNKGRLQASFWIVDKQ [S16A] is 3.62.
Take VTYMNMTAYNKGRLQISFWIVDKQ [S16I]: the protein stability index was 2.81.
As to VTYMNMTAYNKGRLQRSFWIVDKQ [S16R], the protein stability index was 1.28.
VTYMNMTAYNKGRLQKSFWIVDKQ [S16K]: the protein stability index was 1.63.
The value for VTYMNMTAYNKGRLQNSFWIVDKQ [S16N] was 1.21; that for VTYMNMTAYNKGRLQDSFWIVDKQ [S16D] was 2.08; that for VTYMNMTAYNKGRLQFSFWIVDKQ [S16F] was 3.61.
On to VTYMNMTAYNKGRLQPSFWIVDKQ [S16P], for which the protein stability index turned out to be 1.1.
The value for VTYMNMTAYNKGRLQHSFWIVDKQ [S16H] was 2.01.
